We go through three molecules from US20250144172A1, “ANTI-FIBROTIC SIALIDASE INHIBITOR COMPOUNDS AND METHODS OF USE” (The Texas A&M University System, priority 2016, published 2025).

For data set [1], the system named is human PBMC. The experiment in a line: TGF-β1 accumulation by human PBMC (antibody staining and ELISA). The data set is classed as cell-based. The following applies: recombinant sialidase 200 ng/ml; five days. The procedure: To determine if sialidases might cause cells to accumulate intracellular and extracellular TGF-β1, human PBMC were cultured with sialidases in 96 well plates at 5×10^5 cells/ml and 200 μl/well in FibroLife serum-free medium for five days, then air dried. The levels of TGF-β1 in or on the cells was detected by staining with an antibody against TGF-β1. Photomicrographs were analyzed by counting stained cells (FIG. 7B) and quantifying staining intensity using ImageJ (FIG. 7C).
PBMC were cultured in 96 well plates at 5×10^5 cells/ml and 200 μl/well in FibroLife serum-free medium. When the cells were plated, recombinant human sialidases were added to final concentrations of 200 ng/ml, and DANA or oseltamivir were added to 3 μM. After 5 days, culture supernatants were analyzed using a TGF-β1 ELISA kit (R&D Systems).
(An ELISA detects its analyte on a solid surface through an enzyme-linked reagent.)

For data set [2], the system named is human PBMC. The experiment in a line: sialidase staining of human PBMC cultured with recombinant sialidases. It is filed as cell-based. From the text:
In a similar experiment, cells were stained for NEU1, NEU2, NEU3, or NEU4 using antibodies.

Data set [3] deals with human PBMC. Description: fibrocyte formation in human PBMC, serum-free medium. It is filed as cell-based. The following applies: 5 days; for ability of SAP to inhibit fibrocyte formation: 100 ng/ml sialidase with 1 μg/ml SAP; for fibrocyte formation / differentiation: 100 ng/ml sialidase, 10 μg/ml DANA or 1 μg/ml SAP. The procedure: Human peripheral blood was collected from healthy adult volunteers who gave written consent and with specific approval from the Texas A&M University human subjects Institutional Review Board. Peripheral blood mononuclear cells (PBMC) were isolated from blood using Ficoll-Paque Plus (GE Healthcare Biosciences, Piscataway, NJ). Human PBMC were incubated in serum-free medium (FibroLife basal media (LM-0001, Lifeline Cell Technology, Walkersville, MD), supplemented with 10 mM HEPES (Sigma-Aldrich, St. Louis, MO), 1x non-essential amino acids (Sigma-Aldrich), 1 mM sodium pyruvate (Sigma-Aldrich), 2 mM glutamine (Invitrogen, Carlsbad, CA), 100 U/ml penicillin, 100 μg/ml streptomycin (Sigma-Aldrich), and 1x ITS-3 (Sigma-Aldrich) in the presence of absence of 100 ng/ml recombinant human sialidases (Origene, Rockville MD), 10 μg/ml DANA (Calbiochem, San Diego, CA), or 1 μg/ml human SAP (Calbiochem). After 5 days, fibrocytes were counted, and results are presented in FIG. 5.

A short description of data set [4]: recombinant human sialidase activity, 4MU-NANA cleavage at pH 6.4 and 7.0. The data set is classed as biochemical. The protocol:
In general, sialidase activity, including human sialidase activity, may be assessed at 37° C. in the presence of buffers ranging in pH from 3.7 to 7.4. Buffers with pH 3.7, 4.0, 4.6, 5.2 and 5.6 are 100 mM sodium acetate buffers. Buffers with pH 5.8, 6.4, 7.0 and 8.0 are based on Phosphate-Buffered Saline (PBS), with addition of 12 N HCl or 1 M NaOH to adjust the pH. Bovine serum albumin (BSA) is added to the buffer at a concentration of 100 ug/ml. Sialidase at a final concentration of 300 ng/ml is then added to the buffer. A sialidase inhibitor is then added to the mixture at a series of final concentrations. The reaction mixture is incubated for 30 minutes to allow the inhibitor to bind the sialidase. The fluorometric substrate 4MU-NANA [2′-(4-Methylumbelliferyl)-α-D-N-acetylneuraminic acid sodium salt hydrate is then added at a final concentration of 200 μM. Control reactions have no added inhibitor. The total volume of each reaction mixture is 0.1 ml. The cleavage of 4MU-NANA is then monitored by fluorescence every 20 minutes for 5 hours with excitation light at 360 nm and the fluorescence emission at 460 nm.
The fluorescence in the absence of sialidases is subtracted from all readings. The fluorescence of known concentrations of 4-methylumbelliferone is used to convert fluorescence to moles of product.
To determine if sialidases have enzymatic activity at the pH of the extracellular environment, sialidases may be assayed at pH 7.0, approximately corresponding to an extracellular pH in a normal tissue, at pH 6.4, approximately corresponding to an extracellular pH in a fibrotic tissue, or both.
In an example assay, recombinant human sialidases were assayed at pH 6.4, approximately corresponding to the extracellular pH that might occur in a fibrotic tissue, and at pH 7.0, approximately corresponding to a normal extracellular pH.

Data set [5] relates to human PBMC. Description: IL-6 ELISA of supernatants of human PBMC cultured with NEU3. The data set is classed as cell-based. The following applies: presence or absence of serum; two or five days. The protocol: To determine the effects of NEU3 on IL-6 production in human PBMC, human peripheral blood was collected from healthy volunteers who gave written consent and with specific approval from the Texas A&M University human subjects review board. PBMC were isolated from the blood using Ficoll-Paque density gradient centrifugation (GE Healthcare, Cincinnati, OH) following the manufacture's protocol. PBMCs were cultured at 10^5 cells/ml in each well of 96-well flat bottom tissue culture plates (VWR, Radnor, PA) with RPMI-1640 (VWR) supplemented with 10% bovine calf serum (BCS) (VWR), 100 U/ml penicillin, 100 μg/ml streptomycin, (VWR) and 2 mM glutamine (VWR) in a final volume of 200 μl per well. Cells were also cultured at 10^5 cells/ml in serum-free medium as described previously in Pilling, D., Vakil, V. & Gomer, R. H. Improved serum-free culture conditions for the differentiation of human and murine fibrocytes. […]
The culture supernatants were collected after two or five days and assayed using an IL-6 ELISA kit (BioLegend, San Diego, CA) following the manufacturer's protocol, reading absorbance with a SynergyMX plate reader (BioTek, Winooski, VT). Statistics were analyzed using Prism software (Graphpad, La Jolla, CA).

B1: NEU2: recombinant human NEU2 (sialidase 2), human neuraminidase 2 (protein, UniProt Q9Y3R4 1-380, looked up)
Sialidase-2: MASLPVLQKESVFQSGAHAYRIPALLYLPGQQSLLAFAEQRASKKDEHAELIVLRRGDYDAPTHQVQWQAQEVVAQARLDGHRSMNPCPLYDAQTGTLFLFFIAIPGQVTEQQQLQTRANVTRLCQVTSTDHGRTWSSPRDLTDAAIGPAYREWSTFAVGPGHCLQLHDRARSLVVPAYAYRKLHPIQRPIPSAFCFLSHDHGRTWARGHFVAQDTLECQVAEVETGEQRVVTLNARSHLRARVQAQSTNDGLDFQESQLVKKLVEPPPQGCQGSVISFPSPRSGPGSPAQWLLYTHPTHSWQRADLGAYLNPRPPAPEAWSEPVLLAKGSCAYSDLQSMGTGPDGSPLFGCLYEANDYEEIVFLMFTLKQAFPAEYLPQ
On to B1, for which the “accumulation of TGF-β1” value in data set [1] is “increased both cell-associated and extracellular TGF-β1”. For the same molecule, the “levels of NEU3 in PBMC” value in data set [2] is listed as “upregulate levels of NEU3”. In addition, in data set [3], the “ability of SAP to inhibit fibrocyte formation” value is “partially counteracted” and the “fibrocyte formation / differentiation” value is “potentiated fibrocyte formation”. Besides, the Sialidase activity in data set [4] (pH 6.4) was 16.4 ± 1.2 μmole/min/mg protein. In data set [4] (pH 7.0), the Sialidase activity turned out to be 8.9 ± 1.2 μmole/min/mg protein.

B2: NEU3: recombinant human sialidase NEU3 (TP316537, Origene) (protein, UniProt Q9UQ49 1-428, looked up)
Sialidase-3: MEEVTTCSFNSPLFRQEDDRGITYRIPALLYIPPTHTFLAFAEKRSTRRDEDALHLVLRRGLRIGQLVQWGPLKPLMEATLPGHRTMNPCPVWEQKSGCVFLFFICVRGHVTERQQIVSGRNAARLCFIYSQDAGCSWSEVRDLTEEVIGSELKHWATFAVGPGHGIQLQSGRLVIPAYTYYIPSWFFCFQLPCKTRPHSLMIYSDDLGVTWHHGRLIRPMVTVECEVAEVTGRAGHPVLYCSARTPNRCRAEALSTDHGEGFQRLALSRQLCEPPHGCQGSVVSFRPLEIPHRCQDSSSKDAPTIQQSSPGSSLRLEEEAGTPSESWLLYSHPTSRKQRVDLGIYLNQTPLEAACWSRPWILHCGPCGYSDLAALEEEGLFGCLFECGTKQECEQIAFRLFTHREILSHLQGDCTSPGRNPSQFKSN
In the case of B2, the “accumulation of TGF-β1” value in data set [1] is “increased both cell-associated and extracellular TGF-β1”. For the same molecule, the “extracellular accumulation of IL-6” value in data set [5] is on record as “significantly upregulated”. For the same molecule, the “ability of SAP to inhibit fibrocyte formation” value in data set [3] is given as “partially counteracted”. The Sialidase activity is on record as 15.2 ± 1.0 μmole/min/mg protein in data set [4] (pH 6.4) and 8.3 ± 1.2 μmole/min/mg protein in data set [4] (pH 7.0).

B3: NEU4: recombinant human NEU4 (sialidase 4), human neuraminidase 4 (protein, UniProt Q8WWR8 1-484, looked up)
Sialidase-4: MGVPRTPSRTVLFERERTGLTYRVPSLLPVPPGPTLLAFVEQRLSPDDSHAHRLVLRRGTLAGGSVRWGALHVLGTAALAEHRSMNPCPVHDAGTGTVFLFFIAVLGHTPEAVQIATGRNAARLCCVASRDAGLSWGSARDLTEEAIGGAVQDWATFAVGPGHGVQLPSGRLLVPAYTYRVDRRECFGKICRTSPHSFAFYSDDHGRTWRCGGLVPNLRSGECQLAAVDGGQAGSFLYCNARSPLGSRVQALSTDEGTSFLPAERVASLPETAWGCQGSIVGFPAPAPNRPRDDSWSVGPGSPLQPPLLGPGVHEPPEEAAVDPRGGQVPGGPFSRLQPRGDGPRQPGPRPGVSGDVGSWTLALPMPFAAPPQSPTWLLYSHPVGRRARLHMGIRLSQSPLDPRSWTEPWVIYEGPSGYSDLASIGPAPEGGLVFACLYESGARTSYDEISFCTFSLREVLENVPASPKPPNLGDKPRGCCWPS
On to B3, for which the “accumulation of TGF-β1” value in data set [1] is on record as “no significant effect”. In data set [3], the “ability of SAP to inhibit fibrocyte formation” value is on record as “partially counteracted” and the “fibrocyte formation / differentiation” value is given as “potentiated fibrocyte formation”. Moreover, the Sialidase activity in data set [4] (pH 6.4) is listed as 3.8 ± 0.8 μmole/min/mg protein. Further, the Sialidase activity in data set [4] (pH 7.0) amounted to 2.6 ± 0.9 μmole/min/mg protein.
